In patent US20190040102A1 (CDRD VENTURES, published 2019):
Positions of bridges follow the written chain, without caps; N, C: chain ends. Non-standard residues stand in square brackets, D forms with d. *: point of attachment. dPhe(4-CONH2) = NC(=O)c1ccc(C[C@@H](N)C(=O)O)cc1; Phe(4-Cl) = N[C@@H](Cc1ccc(Cl)cc1)C(=O)O; Nicotinoyl = O=C(c1cccnc1)*

What was measured:
Assay in all cases: cell-based or functional assay
[1] = target: somatostatin receptor type 2 (SSTR2) (UniProt P30874 1-369)
[2] = target: somatostatin receptor SSTR3 (UniProt P32745 1-418)
somatostatin receptor SSTR3, sequence (P32745 whole entry): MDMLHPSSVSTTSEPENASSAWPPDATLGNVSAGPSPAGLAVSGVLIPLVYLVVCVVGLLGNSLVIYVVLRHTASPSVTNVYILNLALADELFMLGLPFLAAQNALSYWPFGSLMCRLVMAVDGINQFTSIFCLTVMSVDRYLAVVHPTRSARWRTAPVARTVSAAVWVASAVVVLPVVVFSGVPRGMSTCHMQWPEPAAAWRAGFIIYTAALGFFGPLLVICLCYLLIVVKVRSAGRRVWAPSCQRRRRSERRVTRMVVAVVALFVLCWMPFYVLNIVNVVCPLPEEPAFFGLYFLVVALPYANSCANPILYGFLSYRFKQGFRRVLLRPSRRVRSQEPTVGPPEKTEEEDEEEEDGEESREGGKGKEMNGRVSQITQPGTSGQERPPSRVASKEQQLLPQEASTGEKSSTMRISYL

[3] = target: somatostatin receptor SSTR1 (UniProt P30872 1-391)
somatostatin receptor SSTR1, sequence (P30872 whole entry): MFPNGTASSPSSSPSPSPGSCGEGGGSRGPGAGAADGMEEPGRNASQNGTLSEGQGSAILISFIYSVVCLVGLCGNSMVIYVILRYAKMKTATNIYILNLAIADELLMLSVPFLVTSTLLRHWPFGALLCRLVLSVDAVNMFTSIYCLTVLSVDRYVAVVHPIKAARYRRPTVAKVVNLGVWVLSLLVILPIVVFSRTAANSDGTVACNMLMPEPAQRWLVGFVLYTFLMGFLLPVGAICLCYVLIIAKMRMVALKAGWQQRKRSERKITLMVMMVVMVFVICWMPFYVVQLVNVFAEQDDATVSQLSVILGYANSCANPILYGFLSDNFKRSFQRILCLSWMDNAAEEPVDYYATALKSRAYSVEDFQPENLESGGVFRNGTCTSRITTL

[4] = target: somatostatin receptor SSTR4 (UniProt P31391 1-388)
somatostatin receptor SSTR4, sequence (P31391 whole entry): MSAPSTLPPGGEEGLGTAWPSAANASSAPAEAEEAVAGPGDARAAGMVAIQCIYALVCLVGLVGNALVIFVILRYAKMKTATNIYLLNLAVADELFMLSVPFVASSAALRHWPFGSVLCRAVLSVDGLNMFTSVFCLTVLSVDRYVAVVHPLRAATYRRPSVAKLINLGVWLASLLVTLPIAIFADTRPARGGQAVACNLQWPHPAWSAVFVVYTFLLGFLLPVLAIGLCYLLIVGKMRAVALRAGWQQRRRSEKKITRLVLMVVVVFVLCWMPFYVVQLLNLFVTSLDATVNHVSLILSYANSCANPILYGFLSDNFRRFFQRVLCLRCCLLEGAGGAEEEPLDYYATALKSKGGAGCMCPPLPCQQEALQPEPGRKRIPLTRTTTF

[5] = target: somatostatin receptor SSTR5 (UniProt P35346 1-364)
somatostatin receptor SSTR5, sequence (P35346 whole entry): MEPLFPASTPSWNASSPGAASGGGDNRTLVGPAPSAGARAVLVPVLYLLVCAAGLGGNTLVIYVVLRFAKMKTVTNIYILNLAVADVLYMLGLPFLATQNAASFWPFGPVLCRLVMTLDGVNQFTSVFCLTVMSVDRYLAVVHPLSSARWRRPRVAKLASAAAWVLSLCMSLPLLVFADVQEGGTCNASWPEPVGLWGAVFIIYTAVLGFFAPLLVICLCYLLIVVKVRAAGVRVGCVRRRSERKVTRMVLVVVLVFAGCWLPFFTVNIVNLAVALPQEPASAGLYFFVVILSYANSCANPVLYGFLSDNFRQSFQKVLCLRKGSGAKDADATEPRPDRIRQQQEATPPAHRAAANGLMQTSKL

somatostatin receptor type 2 (SSTR2), sequence (P30874 whole entry): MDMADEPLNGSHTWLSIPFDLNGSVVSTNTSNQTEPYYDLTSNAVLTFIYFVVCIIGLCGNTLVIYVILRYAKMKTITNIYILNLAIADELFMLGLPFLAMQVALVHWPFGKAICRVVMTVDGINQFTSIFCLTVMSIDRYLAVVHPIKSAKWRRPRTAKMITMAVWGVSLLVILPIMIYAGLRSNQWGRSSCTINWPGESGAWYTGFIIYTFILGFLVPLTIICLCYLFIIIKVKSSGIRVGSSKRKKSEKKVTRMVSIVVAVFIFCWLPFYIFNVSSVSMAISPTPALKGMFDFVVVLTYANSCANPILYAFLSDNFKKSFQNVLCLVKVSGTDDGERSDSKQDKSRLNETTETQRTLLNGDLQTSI

Row | IC50 (PathHunter β-Arrestin, antagonist mode) [1] [nM] | IC50 (PathHunter β-Arrestin, antagonist mode) [2] [nM] | IC50 (PathHunter β-Arrestin, antagonist mode) [3] [nM] | IC50 (PathHunter β-Arrestin, antagonist mode) [4] [nM] | IC50 (PathHunter β-Arrestin, antagonist mode) [5] [nM] | Binder
1 | 251 | > 1000 |  |  |  | H-[Phe(4-Cl)][dC]Y[dK](Nicotinoyl)KTC[dY]-NH2 (disulfide 2-7; SMILES C[C@@H](O)[C@@H]1NC(=O)[C@H](CCCCN)NC(=O)[C@@H](CCCCNC(=O)c2cccnc2)NC(=O)[C@H](Cc2ccc(O)cc2)NC(=O)[C@H](NC(=O)[C@@H](N)Cc2ccc(Cl)cc2)CSSC[C@@H](C(=O)N[C@H](Cc2ccc(O)cc2)C(N)=O)NC1=O) [Compound 3: H-Cpa-cyclo[DCys-Tyr-D-(Nε-nicotinoyl)Lys-Lys-Thr-Cys]-DTyr-NH2]
2 | 31 | > 1000 | > 1000 | > 1000 | > 1000 | XXYXKTCX (HELM PEPTIDE1{[N[C@@H](Cc1ccc(Cl)cc1)C(=O)[*:2]].[dC].Y.[NC(=O)NCc1ccc(C[C@@H](N[*:1])C(=O)[*:2])cc1].K.T.C.[dY].[am]}$PEPTIDE1,PEPTIDE1,2:R3-7:R3$$$V2.0; SMILES C[C@@H](O)[C@@H]1NC(=O)[C@H](CCCCN)NC(=O)[C@@H](Cc2ccc(CNC(N)=O)cc2)NC(=O)[C@H](Cc2ccc(O)cc2)NC(=O)[C@H](NC(=O)[C@@H](N)Cc2ccc(Cl)cc2)CSSC[C@@H](C(=O)N[C@H](Cc2ccc(O)cc2)C(N)=O)NC1=O) [Compound 7: H-Cpa-cyclo[DCys-Tyr-D-(4-ureidomethyl)Phe-Lys-Thr-Cys]-DTyr-NH2]
3 | 21 | > 1000 | > 1000 | > 1000 | > 1000 | XXYXKTCX (HELM PEPTIDE1{[N[C@@H](Cc1ccc(Cl)cc1)C(=O)[*:2]].[dC].Y.[O=C([C@@H](Cc1ccc(NS(=O)(=O)c2ccccc2)cc1)N[*:1])[*:2]].K.T.C.[dY].[am]}$PEPTIDE1,PEPTIDE1,2:R3-7:R3$$$V2.0; SMILES C[C@@H](O)[C@@H]1NC(=O)[C@H](CCCCN)NC(=O)[C@@H](Cc2ccc(NS(=O)(=O)c3ccccc3)cc2)NC(=O)[C@H](Cc2ccc(O)cc2)NC(=O)[C@H](NC(=O)[C@@H](N)Cc2ccc(Cl)cc2)CSSC[C@@H](C(=O)N[C@H](Cc2ccc(O)cc2)C(N)=O)NC1=O) [Compound 14: H-Cpa-cyclo[DCys-Tyr-D-4-(benzenesulfonyl)Aph-Lys-Thr-Cys]-DTyr-NH2]
4 | 34 | > 1000 | > 1000 | > 1000 | > 1000 | XXYXKTCX (HELM PEPTIDE1{[N[C@@H](Cc1ccc(Cl)cc1)C(=O)[*:2]].[dC].Y.[NC(=O)NCCC[C@@H](N[*:1])C(=O)[*:2]].K.T.C.[dY].[am]}$PEPTIDE1,PEPTIDE1,2:R3-7:R3$$$V2.0; SMILES C[C@@H](O)[C@@H]1NC(=O)[C@H](CCCCN)NC(=O)[C@@H](CCCNC(N)=O)NC(=O)[C@H](Cc2ccc(O)cc2)NC(=O)[C@H](NC(=O)[C@@H](N)Cc2ccc(Cl)cc2)CSSC[C@@H](C(=O)N[C@H](Cc2ccc(O)cc2)C(N)=O)NC1=O) [Compound 1: H-Cpa-cyclo[D-Cys-Tyr-D-Cit-Lys-Thr-Cys]-D-Tyr-NH2]
5 | 1 | > 1000 | > 1000 | > 1000 | > 1000 | XXYXKTCX (HELM PEPTIDE1{[N[C@@H](Cc1ccc(Cl)cc1)C(=O)[*:2]].[dC].Y.[O=C(Nc1ccccc1)Nc1ccc(C[C@@H](N[*:1])C(=O)[*:2])cc1].K.T.C.[dY].[am]}$PEPTIDE1,PEPTIDE1,2:R3-7:R3$$$V2.0; SMILES C[C@@H](O)[C@@H]1NC(=O)[C@H](CCCCN)NC(=O)[C@@H](Cc2ccc(NC(=O)Nc3ccccc3)cc2)NC(=O)[C@H](Cc2ccc(O)cc2)NC(=O)[C@H](NC(=O)[C@@H](N)Cc2ccc(Cl)cc2)CSSC[C@@H](C(=O)N[C@H](Cc2ccc(O)cc2)C(N)=O)NC1=O) [Compound 15: H-Cpa-cyclo[D-Cys-Tyr-D-Phe(4-phenylureido)-Lys-Thr-Cys]-D-Tyr-NH2]
6 | 17 | > 1000 | > 1000 | > 1000 | > 1000 | XXYXKTCX (HELM PEPTIDE1{[N[C@@H](Cc1ccc(Cl)cc1)C(=O)[*:2]].[dC].Y.[CCCCCNc1ccc(C[C@@H](N[*:1])C(=O)[*:2])cc1].K.T.C.[dY].[am]}$PEPTIDE1,PEPTIDE1,2:R3-7:R3$$$V2.0; SMILES CCCCCNc1ccc(C[C@H]2NC(=O)[C@H](Cc3ccc(O)cc3)NC(=O)[C@H](NC(=O)[C@@H](N)Cc3ccc(Cl)cc3)CSSC[C@@H](C(=O)N[C@H](Cc3ccc(O)cc3)C(N)=O)NC(=O)[C@H]([C@@H](C)O)NC(=O)[C@H](CCCCN)NC2=O)cc1) [Compound 12: H-Cpa-cyclo[D-Cys-Tyr-D-Phe(4-n-pentylamino)-Lys-Thr-Cys]-D-Tyr-NH2]
7 | 17 | > 1000 | > 1000 | > 1000 | > 1000 | XXYXKTCX (HELM PEPTIDE1{[N[C@@H](Cc1ccc(Cl)cc1)C(=O)[*:2]].[dC].Y.[NC(=O)c1ccc(C[C@@H](N[*:1])C(=O)[*:2])cc1].K.T.C.[dY].[am]}$PEPTIDE1,PEPTIDE1,2:R3-7:R3$$$V2.0; SMILES C[C@@H](O)[C@@H]1NC(=O)[C@H](CCCCN)NC(=O)[C@@H](Cc2ccc(C(N)=O)cc2)NC(=O)[C@H](Cc2ccc(O)cc2)NC(=O)[C@H](NC(=O)[C@@H](N)Cc2ccc(Cl)cc2)CSSC[C@@H](C(=O)N[C@H](Cc2ccc(O)cc2)C(N)=O)NC1=O) [Compound 4: H-Cpa-cyclo[DCys-Tyr-D-(4-carbamoyl)Phe-Lys-Thr-Cys]-DTyr-NH2]
8 | 0.96 | > 1000 | > 1000 | > 1000 | > 1000 | H-[Phe(4-Cl)][dC]Y[dPhe(4-CONH2)]K(Me)TC[dY]-NH2 (disulfide 2-7; SMILES CNCCCC[C@@H]1NC(=O)[C@@H](Cc2ccc(C(N)=O)cc2)NC(=O)[C@H](Cc2ccc(O)cc2)NC(=O)[C@H](NC(=O)[C@@H](N)Cc2ccc(Cl)cc2)CSSC[C@@H](C(=O)N[C@H](Cc2ccc(O)cc2)C(N)=O)NC(=O)[C@H]([C@@H](C)O)NC1=O) [Compound 24: H-Cpa-cyclo[D-Cys-Tyr-D-Phe(4-carbamoyl)-Lys(Nε-Me)-Thr-Cys]-D-Tyr-NH2]
